Laboratory results as given in patent CN115850497A (SHAANXI MAI YUAN BIOTECHNOLOGY CO LTD, dated 2023).
One block for each binder: values may come before it.

How the values were obtained:
[1] = target: YKL-40-strep (YKL-40 protein expressed from pGEX 4t-1 in E. coli BL21(DE3)) (human) (UniProt P36222); assay: ELISA, supernatant of subclone 10F1-G8-D9 on coated YKL-40, 3rd screen
[2] = target: YKL-40-strep (YKL-40 protein expressed from pGEX 4t-1 in E. coli BL21(DE3)) (human) (UniProt P36222); assay: ELISA, uncloned hybridoma supernatant (plate 10, well F1) on coated YKL-40, 1st screen
[3] = target: T1, YKL-40-6his expressed from pcDNA3.1 in transfected 293T cells (human, UniProt P36222 22-383); assay: CBA, immunofluorescence of hybridoma supernatant on transfected fixed 293T cells
T1 construct: whole, on cells; also called YKL-40(YKL-40-6his); not shown: 6his tag

[4] = target: T2, Q YKL-40-293-310-6his (YKL-40 construct lacking residues 293-310) (human, UniProt P36222 22-383); assay: immunofluorescence on transfected, acetone-fixed 293T cells
T2 construct: also called 缺失氨基酸区间293-310组; not shown: 6his tag

[5] = target: T1, YKL-40-6his expressed from pcDNA3.1 in …; assay: immunofluorescence of 293T supernatant on transfected fixed 293T cells

T1 sequence (P36222 22-383): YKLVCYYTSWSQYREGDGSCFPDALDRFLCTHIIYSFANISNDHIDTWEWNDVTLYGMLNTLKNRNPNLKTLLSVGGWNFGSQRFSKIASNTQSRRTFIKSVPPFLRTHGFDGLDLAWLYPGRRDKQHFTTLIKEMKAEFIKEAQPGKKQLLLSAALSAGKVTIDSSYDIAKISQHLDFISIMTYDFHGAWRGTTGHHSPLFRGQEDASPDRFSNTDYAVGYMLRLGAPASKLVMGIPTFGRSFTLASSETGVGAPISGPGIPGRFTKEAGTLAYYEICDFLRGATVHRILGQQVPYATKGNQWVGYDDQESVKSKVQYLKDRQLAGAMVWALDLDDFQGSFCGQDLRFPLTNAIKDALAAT
T2 sequence (P36222 other isoform, or with tags, fused parts or gaps limits assumed): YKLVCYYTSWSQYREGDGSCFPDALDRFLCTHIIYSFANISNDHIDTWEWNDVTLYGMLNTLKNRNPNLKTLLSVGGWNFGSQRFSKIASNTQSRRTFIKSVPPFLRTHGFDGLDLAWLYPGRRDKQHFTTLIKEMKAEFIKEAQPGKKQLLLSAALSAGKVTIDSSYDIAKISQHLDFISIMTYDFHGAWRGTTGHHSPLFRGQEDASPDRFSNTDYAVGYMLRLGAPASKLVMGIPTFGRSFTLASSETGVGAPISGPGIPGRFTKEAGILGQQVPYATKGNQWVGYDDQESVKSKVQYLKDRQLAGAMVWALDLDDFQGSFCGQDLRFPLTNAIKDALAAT

OD450 [1]: 1.14
OD450 [2]: 0.905
binding result [3]: binds
B1: 单克隆抗体10F1 (hybridoma-derived, clone 10F1-G8-D9) (antibody, V domains shown)
VH: EVQLQESGPSLVKPSQTLSLSCSVTGDSITSGYWNWIRKFPGNKLEYMGFISYSGNTYYNPSLKSRISITRDTSKNQYFLQLNSVTTEDTATYYCVRKGDYDGAWFAYWGQGTLVTVSA
VL: DIQMTQSPASLSASVGETVTITCRASGNIHNYLAWYQQKQGKSPQLLVYNAKTLADGVPSRFSGSGSGTQYSLKINSLQPEDFGSYYCQHFWSTPLTFGAGTKLELK
notes: Mouse hybridoma antibody; Tested as hybridoma culture supernatant; also called YKL-40单克隆抗体

binding result [4]: no binding
binding result [5]: binds
B2: 重组单克隆抗体10F1 (expressed from 10F1m2a + 10F1mk in 293T cells) (antibody, V domains shown)
VH: B1 VH
VL: B1 VL
notes: also called 重组10F1单克隆抗体
